Test system: Escherichia coli TOP10
Experiment: shrunken log2 fold change of peptide-encoding DNA abundance (4.5 h post-induction vs induction); higher = less antimicrobial activity (less host growth inhibition)
Details: time post-induction: 4.5 h; library: site-saturation at positions 5, 18, 19, 20
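Note: peptides expressed intracellularly from a pBAD plasmid library in pooled LB shake-flask culture, induced with 0.3% L-arabinose, DNA abundance read by NGS, three biological replicates, DESeq2 with apeglm shrinkage.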

| Sequence | shrunken log2 fold change |
| --- | --- |
| RRIRDRPPRLPRPRPRPNWKPRP | -0.0238 |
| RRIRQRPPRLPRPRPRPIFDPRP | -0.0877 |
| RRIRPRPPRLPRPRPRPSLGPRP | 0.342 |
| RRIRPRPPRLPRPRPRPKSNPRP | -0.37 |
| RRIRARPPRLPRPRPRPWESPRP | 0.192 |
| RRIRFRPPRLPRPRPRPKTMPRP | -0.197 |
| RRIRTRPPRLPRPRPRPCSAPRP | -0.413 |
| RRIRPRPPRLPRPRPRPFQFPRP | -0.467 |
| RRIRYRPPRLPRPRPRPGFHPRP | -0.564 |
| RRIRIRPPRLPRPRPRPKHYPRP | -0.44 |
| RRIRKRPPRLPRPRPRPVFSPRP | 0.111 |
| RRIRMRPPRLPRPRPRPGGVPRP | 0.952 |
| RRIRPRPPRLPRPRPRPLEQPRP | 0.169 |
| RRIRVRPPRLPRPRPRPSEHPRP | -0.779 |
| RRIRKRPPRLPRPRPRPCYEPRP | -0.311 |
| RRIRMRPPRLPRPRPRPYHSPRP | -0.0421 |
| RRIRRRPPRLPRPRPRPEVPPRP | 0.0172 |
| RRIRARPPRLPRPRPRPRDRPRP | 0.706 |
| RRIRPRPPRLPRPRPRPMSYPRP | 0.296 |
| RRIRIRPPRLPRPRPRPKDGPRP | -0.105 |
| RRIRHRPPRLPRPRPRPMHEPRP | 0.0983 |
| RRIRGRPPRLPRPRPRPENMPRP | 0.325 |

| Sequence | shrunken log2 fold change |
| --- | --- |
| RRIRARPPRLPRPRPRPLDHPRP | 0.267 |
| RRIRDRPPRLPRPRPRPWYLPRP | -0.11 |
| RRIRMRPPRLPRPRPRPFWEPRP | 0.0748 |
| RRIRDRPPRLPRPRPRPFHVPRP | -0.0179 |
| RRIRERPPRLPRPRPRPHCSPRP | -0.279 |
| RRIRDRPPRLPRPRPRPATCPRP | 0.171 |
| RRIRDRPPRLPRPRPRPMTTPRP | -0.0624 |
| RRIRHRPPRLPRPRPRPDTFPRP | -1.19 |
| RRIRLRPPRLPRPRPRPRQTPRP | 1.27 |
| RRIRKRPPRLPRPRPRPICNPRP | 0.102 |
| RRIRVRPPRLPRPRPRPYVDPRP | -0.0757 |
| RRIRFRPPRLPRPRPRPEKGPRP | 0.0184 |
| RRIRTRPPRLPRPRPRPAINPRP | 0.0461 |
| RRIRPRPPRLPRPRPRPIPQPRP | -0.321 |
| RRIRVRPPRLPRPRPRPCHEPRP | -0.378 |
| RRIRSRPPRLPRPRPRPELAPRP | 0.929 |
| RRIRNRPPRLPRPRPRPLNEPRP | -0.233 |
| RRIRPRPPRLPRPRPRPVDAPRP | 0.173 |
| RRIRTRPPRLPRPRPRPGAHPRP | 0.0457 |
| RRIRLRPPRLPRPRPRPTNHPRP | -0.174 |
| RRIRVRPPRLPRPRPRPFGVPRP | -0.179 |
| RRIRARPPRLPRPRPRPYTFPRP | -0.444 |

| Sequence | shrunken log2 fold change |
| --- | --- |
| RRIRRRPPRLPRPRPRPYDHPRP | -0.149 |
| RRIRHRPPRLPRPRPRPENKPRP | -0.639 |
| RRIRCRPPRLPRPRPRPRIKPRP | 0.0662 |
| RRIRWRPPRLPRPRPRPETGPRP | 0.396 |
| RRIRTRPPRLPRPRPRPYYDPRP | -0.24 |
| RRIRSRPPRLPRPRPRPKIRPRP | -0.177 |
| RRIRFRPPRLPRPRPRPSAGPRP | 0.192 |
| RRIRYRPPRLPRPRPRPMLRPRP | -0.256 |
| RRIRQRPPRLPRPRPRPVNGPRP | -0.0109 |
| RRIRVRPPRLPRPRPRPWVQPRP | -0.021 |
| RRIRKRPPRLPRPRPRPLIAPRP | 0.456 |
| RRIRYRPPRLPRPRPRPPEVPRP | -0.142 |
| RRIRQRPPRLPRPRPRPQEKPRP | 0.0313 |
| RRIRLRPPRLPRPRPRPVGCPRP | 0.226 |
| RRIRLRPPRLPRPRPRPFSRPRP | -0.199 |
| RRIRERPPRLPRPRPRPDPKPRP | 0.00358 |
| RRIRGRPPRLPRPRPRPLDGPRP | 0.342 |
| RRIRKRPPRLPRPRPRPAVSPRP | 0.0687 |
| RRIRIRPPRLPRPRPRPSPVPRP | -0.297 |
| RRIRTRPPRLPRPRPRPYTVPRP | -0.0341 |
| RRIRMRPPRLPRPRPRPSTHPRP | 0.021 |
| RRIRHRPPRLPRPRPRPWRFPRP | 0.0342 |

| Sequence | shrunken log2 fold change |
| --- | --- |
| RRIRHRPPRLPRPRPRPYVEPRP | 0.0369 |
| RRIRNRPPRLPRPRPRPTYMPRP | -0.596 |
| RRIRYRPPRLPRPRPRPCLGPRP | -0.231 |
| RRIRHRPPRLPRPRPRPGTFPRP | -0.132 |
| RRIRHRPPRLPRPRPRPSKYPRP | -0.776 |
| RRIRHRPPRLPRPRPRPEEAPRP | 0.015 |
| RRIRYRPPRLPRPRPRPQVCPRP | -0.00133 |
| RRIRHRPPRLPRPRPRPAHNPRP | -0.366 |
| RRIRPRPPRLPRPRPRPIYRPRP | -0.158 |
| RRIRYRPPRLPRPRPRPHWDPRP | -0.92 |
| RRIRNRPPRLPRPRPRPFMCPRP | -0.202 |
| RRIRRRPPRLPRPRPRPMFEPRP | 0.266 |
| RRIRKRPPRLPRPRPRPHAIPRP | -0.142 |
| RRIRNRPPRLPRPRPRPRFKPRP | 0.0387 |
| RRIRYRPPRLPRPRPRPWIGPRP | -0.314 |
| RRIRGRPPRLPRPRPRPIQKPRP | 0.0229 |
| RRIRARPPRLPRPRPRPIVPPRP | 0.0453 |
| RRIRERPPRLPRPRPRPHHTPRP | -0.268 |
| RRIRVRPPRLPRPRPRPWWCPRP | -0.0966 |
| RRIRPRPPRLPRPRPRPKWYPRP | -0.161 |
| RRIRDRPPRLPRPRPRPMMMPRP | -0.0648 |
| RRIRSRPPRLPRPRPRPDLVPRP | 0.0452 |

| Sequence | shrunken log2 fold change |
| --- | --- |
| RRIRNRPPRLPRPRPRPHPLPRP | -0.122 |
| RRIRDRPPRLPRPRPRPEFVPRP | 0.204 |
| RRIRWRPPRLPRPRPRPIPMPRP | 0.112 |
| RRIRWRPPRLPRPRPRPVIKPRP | -0.226 |
| RRIRCRPPRLPRPRPRPFTFPRP | -0.351 |
| RRIRLRPPRLPRPRPRPQNFPRP | 0.0254 |
| RRIRYRPPRLPRPRPRPYNEPRP | -1.3 |
| RRIRNRPPRLPRPRPRPMMQPRP | -0.208 |
| RRIRRRPPRLPRPRPRPCTLPRP | -0.49 |
| RRIRKRPPRLPRPRPRPADRPRP | 0.102 |
| RRIRVRPPRLPRPRPRPPCWPRP | 0.422 |
| RRIRWRPPRLPRPRPRPCKWPRP | -0.275 |
| RRIRIRPPRLPRPRPRPAWAPRP | 0.243 |
| RRIRFRPPRLPRPRPRPAGRPRP | 0.294 |
| RRIRARPPRLPRPRPRPDRDPRP | -0.0499 |
| RRIRPRPPRLPRPRPRPTICPRP | 0.172 |
| RRIRARPPRLPRPRPRPLGGPRP | 1.01 |
| RRIRMRPPRLPRPRPRPKNHPRP | 0.412 |
| RRIRTRPPRLPRPRPRPPVCPRP | 0.713 |
| RRIRKRPPRLPRPRPRPGVAPRP | 0.892 |
| RRIRKRPPRLPRPRPRPEYVPRP | -0.00396 |
